Patent US20080292639A1 (Amgen, published 2008)

B1: murine monoclonal anti-amyloid antibody 2.1 (antibody, mouse IgG1, kappa, V domains shown)
VH: QVTLKESGPGILKPSQTLSLTCSFSGFSLRTSGMGVGWIRQPSGKGLEWLAHIWWDDDKSYNPSLKSQLTISKDTSRNQVFLKITSVDTADTATYYCARRNYYYDDYFAYWGQGTTLTVSS
VL: DVLMTQTPLSLPVSLGDQASISCRSSQSIVHSNGNTYLEWYLQKPGQSPKLLIYKVSNRFSGVPDRFSGSGSGTDFTLKISRVEAEDLGVYYCFQGSHVPLTFGAGTKLELKR
notes: also called mAb 2.1; 2.1 murine
B2: 2.1 A (antibody, human IgG1, kappa)
heavy: not shown
light: DVLMTQSPLSLPVTLGQPASISCRSSQSIVHSNGNTYLEWYLQRPGQSPKLLIYKVSNRFSGVPDRFSGSGSGTDFTLKISRVEAEDVGVYYCFQGSHVPLTFGAGTKLEIKRTVAAPSVFIFPPSDEQLKSGTASVVCLLNNFYPREAKVQWKVDNALQSGNSQESVTEQDSKDSTYSLSSTLTLSKADYEKHKVYACEVTHQGLSSPVTKSFNRGEC
notes: Humanized IgG
B3: 2.1 N (antibody, human IgG1, kappa, V domains shown)
VH: QVTLKESGPALVKPTQTLTLTCTFSGFSLRTSGMGVGWIRQPPGKGLEWLAHIWWDDDKSYNPSLKSQLTISKDTSKNQVVLTMTNMDPVDTATYYCARRNYYYDDYFAYWGQGTTLTVSS
VL: DVVMTQSPLSLPVTLGQPASISCRSSQSIVHSNGNTYLEWFQQRPGQSPRRLIYKVSNRFSGVPDRFSGSGSGTDFTLKISRVEAEDVGVYYCFQGSHVPLTFGQGTKLEIKR
notes: Humanized IgG

What was measured:
[1] = biological target: T1, native amyloid plaques in unfixed brain sections of Tg2576 APP transgenic mice (human, UniProt P05067 672-713, limits assumed); experiment: cell-based or functional assay
T1 sequence (P05067 672-713 limits assumed): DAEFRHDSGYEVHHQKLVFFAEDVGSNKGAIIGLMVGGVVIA

human Aβ42 monomer [2] = biological target: T2, human Aβ42 monomer (human, UniProt P05067 672-713); experiment: BIAcore, antibody captured on protein G or anti-mouse Fc, Aβ monomer injected
T2 construct: domain: Aβ42; Monomeric form
T2 sequence (P05067 672-713 limits assumed): as above
Procedure: (§1) Preparation of BIacore Chip Surfaces: Immobilization of Proteins to a Biacore sensor chip (CM5) was performed according to manufacturer's instructions. Briefly, carboxyl groups on the sensor chip surfaces were activated by injecting 60 μL of a mixture containing 0.2 M N-ethyl-N′-(dimethylaminopropyl)carbodiimide (EDC) and 0.05 M N-hydroxysuccinimide (NHS). Specific surfaces were obtained by injecting rProtein G (Pierce), goat anti-mouse Fc (Jackson Immuno Research Lab) or Aβ aggregates diluted in 10 mM acetate, pH 4.0 at concentrations between 5 and 20 μg/mL. Excess reactive groups on the surfaces were deactivated by injecting 60 μL of 1 M ethanolamine. Final immobilized levels were about 10000 resonance units (RU) for the Protein G and anti-mouse Fc surfaces, and 400 RU for the Aβ aggregates surfaces. A blank, mock-coupled reference surface was also prepared on the sensor chips for background subtraction.
(§2) Kinetic analysis of Aβ monomers binding to protein G captured antibodies: The kinetic analysis of the interaction between Aβ monomers and antibodies was performed as follows: 2.1A and mAb 2.1 were diluted in PBS+0.005% P-20+0.1 mg/mL BSA and injected over the immobilized protein G or anti-mouse Fc surfaces. Aβ monomers were diluted in PBS+0.005% P-20+0.1 mg/mL BSA from 1000 nM to 2 nM, and each concentration was injected over the captured antibody surfaces. After 3 minutes dissociation, each surface was regenerated by injection of 10 mM glycine, pH 1.5.

human Aβ40 monomer [3] = biological target: T3, human Aβ40 monomer (human, UniProt P05067 672-711); experiment: as above
T3 construct: domain: Aβ40; Monomeric form
T3 sequence (P05067 672-711 limits assumed): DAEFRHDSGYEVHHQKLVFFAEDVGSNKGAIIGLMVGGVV
Procedure: as §1, §2

human Aβ40 fibrils [4] = biological target: T4, human Aβ40 fibrils (human, UniProt P05067 672-711); experiment: BIAcore, antibody injected over immobilized Aβ aggregates
T4 construct: domain: Aβ40; Aggregated (fibrillar) form; also called Fibrillar Aβ40; Aβ40 aggregate
T4 sequence (P05067 672-711 limits assumed): as above
Procedure: as §1
(§3) Kinetic analysis of antibodies binding to immobilized Aβ aggregates: Antibodies were diluted in PBS+0.005% P-20+0.1 mg/mL BSA from 100 nM to 0.2 nM. The samples at each concentration were injected over the immobilized Aβ aggregate surfaces, as well as over a blank surface for background subtraction. After a 15-minute dissociation, the surface was regenerated by injecting 8 mM glycine, pH 3.0, and 1 M NaCl for 30 seconds.

human Aβ42 fibrils [5] = biological target: T5, human Aβ42 fibrils (human, UniProt P05067 672-713); experiment: as above
T5 construct: domain: Aβ42; Aggregated (fibrillar) form; also called Fibrillar Aβ42; Aβ42 aggregate
T5 sequence (P05067 672-713 limits assumed): as the sequence (P05067 672-713 limits assumed) above
Procedure: as §1, §3

[6] = biological target: T1, native amyloid plaques in unfixed brain …; experiment: cell-based or functional assay; remark: listed apart in the source
[7] = biological target: amyloid plaques in unfixed brain sections of a human AD patient (human, UniProt P05067 672-713); experiment: cell-based or functional assay
amyloid plaques in unfixed brain sections of a human AD patient, sequence (P05067 672-713): as the sequence (P05067 672-713 limits assumed) above

human Aβ40 fibrils [8] = biological target: T4, human Aβ40 fibrils; experiment: ELISA on plate-dried fibrils, time-resolved europium fluorescence
Procedure: (§4) The fibrils (Aβ or collagen) were diluted to 10 μg/ml in water and mixed thoroughly. The solution was aliquoted into the wells of a microtiter plate (Immulon-2; VWR; Cat # 62404-972) at 50 μl per well (resulting in 0.5 μg fibrils/well final). The plate was dried overnight by being placed uncovered in a 37° C. incubator.
(§5) The wells were blocked with 200 μl of blocking solution and incubated for ≧1 hour at room temperature (RT) with shaking. The blocking solution was flicked out and gently dried on a paper towel. 100 μl of primary antibody diluted in PBS containing 10% blocking solution was added to each well and the plate was incubated at RT for 1 hour with shaking. The plate was washed with 5-10× in TBS, pH 7.5+0.05% Tween 20. 100 μl of secondary antibodies (each diluted 1-2,000-fold in PBS) was added to each well and the plate was incubate at RT for 1 hour with shaking. The plate was washed with 5-10× in TBS, pH 7.5+0.05% Tween 20. 100 μl Streptavidin-Europium reagent (1-1,000-fold dilution) was added and the plated was incubated at RT for 45 minutes with shaking. The plate was washed 5-10× in TBS, pH 7.5+0.05% Tween 20. 120 μl Enhance Solution was added and the plate was incubated at RT for 15-30 minutes with shaking. The plate was read on a Victor TRF plate reader (Europium program).

human Aβ42 fibrils [9] = biological target: T5, human Aβ42 fibrils; experiment: as above
Procedure: as §4, §5

human Aβ40 fibrils [10] = biological target: T4, human Aβ40 fibrils; experiment: BIAcore, antibody injected over immobilized Aβ fibrils
Procedure: as §1, §3
(§6) The kinetic analysis assay as described above was repeated using various humanized versions of anti-Aβ antibodies (2.1 chimera, 2.1 B, 2.1 C, 2.1 D, 2.1 E, 2.1 F, 2.1 G, 2.1 E.K5, 2.1E.K5R, 2.1 G.K5, 2.1 G.K5R, 2.1 I.K5R and 2.1 L).

human Aβ42 fibrils [11] = biological target: T5, human Aβ42 fibrils; experiment: as above
Procedure: as §1, §3, §6

human Aβ42 monomer [12] = biological target: T2, human Aβ42 monomer; experiment: ELISA on plate-coated monomer, time-resolved europium fluorescence
Procedure: (§7) The same techniques were used for the coating of the microtiter plate for monomer ELISA. The fibrils Aβ monomer were diluted to 2.5 μg/ml in Coating buffer and mixed thoroughly. The solution was aliquoted into the wells of a microtiter plate [Immulon-2; VWR; Cat.#62404-972] at 100 μl per well. The plate was sealed and incubated overnight at 4° C. The plate was washed 5-10× to remove Aβ coating solution prior to starting the assay.
as §5

human Aβ40 monomer [13] = biological target: T3, human Aβ40 monomer; experiment: as above
Procedure: as §7, §5

[14] = biological target: T1, native amyloid plaques in unfixed brain …; experiment: immunohistochemistry on unfixed Tg2576 mouse brain sections

| Binder | EC50 of antibody induced phagocytosis of amyloid [1] | Kd (human Aβ42 monomer [2]) | koff (human Aβ42 monomer [2]) | kon (human Aβ42 monomer [2]) | Kd (human Aβ40 monomer [3]) | koff (human Aβ40 monomer [3]) | kon (human Aβ40 monomer [3]) | koff (human Aβ40 fibrils [4]) | koff (human Aβ42 fibrils [5]) | EC50 (µg/ml), ex vivo phagocytosis [6] | EC50 of phagocytosis by IC-21 cells on human AD brain sections [7] | EC50 (human Aβ40 fibrils [8]) | EC50 (human Aβ42 fibrils [9]) | koff (human Aβ40 fibrils [10]) | koff (human Aβ42 fibrils [11]) | EC50 (human Aβ42 monomer [12]) | EC50 (human Aβ40 monomer [13]) | binding result [14] |
| --- | --- | --- | --- | --- | --- | --- | --- | --- | --- | --- | --- | --- | --- | --- | --- | --- | --- | --- |
| B1 | 0.4 µg/mL | 17 nM | 0.00072 s⁻¹ | 42000 M⁻¹ s⁻¹ | 42 nM | 0.0041 s⁻¹ | 98000 M⁻¹ s⁻¹ | < 5e-05 s⁻¹ | < 5e-05 s⁻¹ | – | – | – | – | – | – | – | – | – |
| B2 | – | 50 nM | 0.0049 s⁻¹ | 98000 M⁻¹ s⁻¹ | 68 nM | 0.0094 s⁻¹ | 140000 M⁻¹ s⁻¹ | < 5e-05 s⁻¹ | < 5e-05 s⁻¹ | 0.83 µg/mL | 0.72 µg/mL | 0.065 nM | 0.074 nM | < 5e-05 s⁻¹ | < 5e-05 s⁻¹ | 0.031 nM | 0.029 nM | – |
| B3 | – | – | – | – | – | – | – | – | – | – | – | – | – | – | – | – | – | no binding (tested: 1 µg/ml) |
